Measurements published in the RNAGym collection of RNA variant scans (doi:10.1073/pnas.2313332121).

B1: TPR t1 (parent)
chain: GACCAAUCUGCCCUCAGAGCUCGAGAACAUCUUCGGAUGCAGAGGAGGCAGGCUUCGGUGGCGCGAUAGCGCCAACGUCCUCAACCUCCAAUGCAUCCCACCACAUGAUGAUGCCUGAAGAGCCUUGGUUUUUUG

Variants of: B1
Assay: polymerase ribozyme fitness, log enrichment relative to wild type (log ratio); higher = more active; in vitro selection for triplet polymerase activity
In short: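 Mutant libraries were PCR-built and transcribed for each subunit of a heterodimeric triplet polymerase ribozyme and selected for one round in triplicate at −7 °C, frozen, before gel excision of extended constructs and streptavidin-bead capture. Input and output libraries were Illumina-sequenced, keeping genotypes with ≥10 input reads and ≥1 read per output. Fitness is a logarithmic ratio of genotype to wild-type enrichment, in base 2, using inverse-variance-weighted replicate averages.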

| Variant | polymerase ribozyme fitness (log ratio) |
| --- | --- |
| C49U U106A U116C | -1.79 |
| C49U U96A | -3.17 |
| C49A U78A | -1.14 |
| A50U C101A | -2.09 |
| G48C U55G C62A C79U A84C C85G G93U C124A | -0.918 |
| A50C A121G | 1.73 |
| C49A C56A G63A A75U A83C G113U C123G G127A | -5.69 |
| C49G G135U | -1.27 |
| G48U C72A | -0.467 |
| A50U G51A G60A | -4.34 |
| C49G C80U | -3.42 |
| G48A G117U | -2.2 |
| C49G C85A G113U | -4.81 |
| C49G G128U | -2.74 |
| G48C G128A | -3.43 |
| G48A G113A | -1.61 |
| G48U U92C G120A G127C U134G | -1.91 |
| A50U G52A A84U G128U | -5.16 |
| C49U G128A | -2.63 |
| A50G U55G C79G A91C U109A | -6.64 |
| C49U G110U | -2.6 |

| Variant | polymerase ribozyme fitness (log ratio) |
| --- | --- |
| A50U C94U | -0.732 |
| C49G U92C | -1.53 |
| G48C U106C | -1 |
| G48C U106G | -1.5 |
| A50C G61U C114U A118G | -3.14 |
| A50C G110C | -4.96 |
| C49A G63U G65C G120C | -6.43 |
| G51A C56G C124U | -1.06 |
| G48U G57C U96A | -1.49 |
| C49U C70G C102A A111C U116A G120C | -6.27 |
| G48U U54C G71U U116C G122U | -2.51 |
| A50C U78G G110C G120A C124U | -4.98 |
| C49A G63U G117A | -3.12 |
| G48U C123A U126A | -2.05 |
| A50U U112A U125C | -0.475 |
| C49U G51U C62U C80A G113A | -4.27 |
| C49A C72G | -0.887 |
| G48C A83U A108G | -1.66 |
| G51A C56A G93A C114U G117U | -6.47 |
| A50U G63C U112A A118G | -2.37 |
| C49U G69A | -3.63 |

| Variant | polymerase ribozyme fitness (log ratio) |
| --- | --- |
| A50G C70U G113C | -3.88 |
| C49A G61A G127C G135C | -0.458 |
| G51A A66U C104G A105U A121G | -7.62 |
| A50U G117U | -2.6 |
| C49G G71C A84U G110C | -6.35 |
| A50G G113U U131A | -4.11 |
| A50C G63A U81A | -0.41 |
| A50G C56A C82A U131C | -1.25 |
| A50U G58A U78C A103G U109G | -5.98 |
| G48A G122C C123G G127A | -2.37 |
| A50U G63C U78A U112C U116G A119C | -6.63 |
| G48U C56G C64U C101A | -2.95 |
| A50U C62U A91C | -3.88 |
| C49A G52C G60A U112G G127C | -2.8 |
| G48U A50G | -1.02 |
| C49A G60C G127A U131A | -3.76 |
| C49G C62A U78C | -1.5 |
| A50C C73A U92G U112A G135A | -3.24 |
| C49A C64U C123U | 0.702 |
| G51A G57C C114A | -3.38 |
| C49G U109A U112A | -5.85 |

| Variant | polymerase ribozyme fitness (log ratio) |
| --- | --- |
| G48C C49G C72U C97U U116G | -2.86 |
| C49U C53U C70U C79U | -4.07 |
| A50G G60C | -1.81 |
| A50C C56G A121U | 1.61 |
| G48U U109C | -4.94 |
| A50C G52U C94A G117A | -6.56 |
| C49U C72U C89G | -1.87 |
| C49A A91C G127A | -3.35 |
| C49G A119G C123G | 1.72 |
| G51A C62U | -2.43 |
| G48U C56G C80G | -3.4 |
| G48C C115A | -1.84 |
| C49G U59G C62U G122A | -1.61 |
| C49G U55C A95C C98U | -3.54 |
| C49U U132A | -0.342 |
| C49A U87C | 0.179 |
| C49U C72U | -0.879 |
| G48U C64U G120A C123U | 0.28 |
| C49U C89U A105U | -4.2 |
| C49G C88A G107U | -6.08 |
| G48C G60U | -2.22 |
